Source: patent US20250002574A1 (SUNSHINE LAKE PHARMA, published 2025)
Where a chain is given by its changes, count along the chain named.

B1: 3-6A4 (hybridoma) (antibody, human IgG1, kappa, V domains shown)
VH: QIQLVQSGPELKKPGETVKISCKASGYTFTTNGINWVKQAAGKGLKWMGWINTNTGEPTNAEELKGRFAFSLETSASTAYLQINNLKNEDAAIYFCAREGAFGLDYWGQGTSVTVSS
VL: SIVMTQSPKFLLVSAGDRVIITCKASQSVSNDVVWYQQKPGQSPKLLIYYGSHRNTGVPTRFTGSGYGTDFTFTISTVQAEDLAVYFCQQDFFSPWTFGGGTKLEIKR
notes: only the variable parts apply for certain
B2: 3-5B2-2G4 (antibody, human IgG1, kappa, V domains shown)
VH: QIQLVQSGPELKKPGETVKISCKASGYTFTNYGMNWVKQAPGKGLKWMGWINTNTGEPTYAEEIKGRFAFSLETSASTAYLQINNLKNEDTATYFCSREGIYGMDSWGQGTSVTVSS
VL: B1 VL with S7T, I20T, Q37R, G51A, H53N, N55Y, T56I, T60D, F92Y, F93Y
B3: 5-20E11-5F2 (hybridoma subclone) (antibody, human IgG1, kappa, V domains shown)
VH: QVQLQQSGAELVRPGTSAKISCKASDYTFTNYWLGWLKQRPGHGLEWIGHIYPGGGYTNYNEKFKGKATLTADTSSSTAYMQLSSLTSEDSAVYFCARVRSGNDALDFWGQGTSVTVSS
VL: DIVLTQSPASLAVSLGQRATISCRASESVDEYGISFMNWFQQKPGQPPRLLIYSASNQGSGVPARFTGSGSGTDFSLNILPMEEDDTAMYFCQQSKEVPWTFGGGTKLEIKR
B4: 5-20E11-1A2 (antibody, V domains shown)
VH: QVQLQQPGAELVRPGTSVKMSCKASGYTFTSYWMHWVKQRPGQGLEWIGDIYPGSDSTNYHEKFKSKATLTVDTSSSTAYMQLSSLTSEDSAVYYCALDSSGYGFAYWGQGTLVTVSA
VL: NIVMTQTPKFLLVSAGDRVTITRKASQSVSNDVVWYQQKPGQSPKLLMYYASYRYTGVPDRFTGSGYGTDFTFTISNVQAEDLAVYFCQQDYSSPFTFGSGTKLEIK
B5: 1F10 (scFv)
scFv: QVQLVQSGAEVKKPGASVKVSCKASDYTFTNYWLGWVRQAPGQGLEWMGHIYPGGGYTNYNEKFKGRVTMTRDTSTSTVYMELSSLRSEDTAVYYCARVRSGNDALDIWGQGTLVTVSSGGGGSGGGGSGGGGSEIVLTQSPATLSLSPGERATLSCRASESVDEYGISFMNWFQQKPGQAPRLLIYSASNQGDGIPARFSGSGSGTDFTLTISSLEPEDFAVYFCQQSKDVPWTFGGGTKLEIK
notes: As m119: scFv on phage
B6: Original sequence (1H9) (scFv)
scFv: B5 scFv with I108F, D194S, D231E
notes: Template scFv of the phage library, on phage; also called ScFv VH-Linker-VL of VH1+VL3
B7: 2G9 (scFv)
scFv: B5 scFv with R100S, I108F, S188G, D194S, D231E, V232L
notes: As m119: scFv on phage
B8: 1G9 (scFv)
scFv: B5 scFv with K13Q, I108F, G131D, Q192R, D194S, S214N, D231E
notes: As m119: scFv on phage
B9: 1G11 (scFv)
scFv: B5 scFv with R100S, I108F, G193A, D194S, D231E, V232L
notes: As m119; the printed mutations are the same as those of 1F12
B10: 2F1 (scFv)
scFv: B5 scFv with R100S, I108F, D194S, D231E, V232L
notes: As m119; the printed mutations are the same as those of 2E2
B11: 1F12 (scFv)
scFv: B5 scFv with R100S, I108F, G193A, D194S, D231E, V232L
notes: As m119: scFv on phage
B12: 2F2 (scFv)
scFv: B5 scFv with R100S, I108L, G122E, D194S, D231E
notes: As m119: scFv on phage
B13: 2E7 (scFv)
scFv: B5 scFv with G54S, R100S, I108F, D194S, D231E, V232L
notes: As m119: scFv on phage
B14: 2E2 (scFv)
scFv: B5 scFv with R100S, I108F, D194S, D231E, V232L
notes: As m119: scFv on phage

molecular target: T1, IL-11 (UniProt P20809 22-199, limits assumed); test: flow, IL-11 + antibody on IL-11R cells; lower = more blocking
T1 construct: also called IL-11 protein; IL-11 antigen
T1 sequence (looked up): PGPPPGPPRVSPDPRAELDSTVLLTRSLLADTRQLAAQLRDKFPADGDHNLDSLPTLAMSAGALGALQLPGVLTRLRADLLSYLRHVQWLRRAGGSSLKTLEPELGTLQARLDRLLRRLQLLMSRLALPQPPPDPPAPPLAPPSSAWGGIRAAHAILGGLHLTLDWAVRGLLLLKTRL

Question: For B1, which “FITC Mean” value is on record?
Answer: Its value is 3040 mean fluorescence.

Question: For B2, which “FITC Mean” value is on record?
Answer: Its value is 19800 mean fluorescence.

Question: How did the “FITC Mean” value turn out when B3 was run?
Answer: The value was 3110 mean fluorescence.

Question: For B4, which “FITC Mean” value is on record?
Answer: The value was 3640 mean fluorescence.

molecular target: T1, IL-11; test: ELISA on IL-11, monoclonal hybridoma antibody

Question: Which OD450 does the source give for B1 here?
Answer: Its OD450 is 1.58 OD450.

Question: With B2 as the binder, how does the OD450 read?
Answer: Its OD450 is 1.65 OD450.

Question: Which OD450 does the source give for B3 here?
Answer: The OD450 was 1.6 OD450.

Question: With B4 as the binder, how does the OD450 read?
Answer: Its OD450 is 1.63 OD450.

molecular target: T1, IL-11; test: phage ELISA on IL-11

Question: Which ELISA does the source give for B5 here?
Answer: Its ELISA is 2.6.

Question: How did the ELISA turn out when B6 was run?
Answer: The ELISA was 1.16.

Question: With B7 as the binder, how does the ELISA read?
Answer: The ELISA was 2.09.

Question: B8 was tested. Which ELISA did it give?
Answer: Its ELISA is 2.81.

Question: B9 was tested. Which ELISA did it give?
Answer: The ELISA was 2.58.

Question: Which ELISA does the source give for B10 here?
Answer: The ELISA was 2.1.

Question: How did the ELISA turn out when B11 was run?
Answer: Its ELISA is 2.59.

Question: With B12 as the binder, how does the ELISA read?
Answer: The ELISA was 2.65.

Question: B13 was tested. Which ELISA did it give?
Answer: The ELISA was 2.19.

Question: For B14, which ELISA is on record?
Answer: Its ELISA is 2.58.

molecular target: T1, IL-11; test: flow cytometry of phage clone; cells not given

Question: How did the “Flow (Mean)” value turn out when B5 was run?
Answer: Its value is 2640 mean fluorescence.

Question: With B6 as the binder, how does the “Flow (Mean)” value read?
Answer: Its value is 450 mean fluorescence.

Question: Which “Flow (Mean)” value does the source give for B7 here?
Answer: The value was 1910 mean fluorescence.

Question: B8 was tested. Which “Flow (Mean)” value did it give?
Answer: Its value is 2240 mean fluorescence.

Question: For B9, which “Flow (Mean)” value is on record?
Answer: Its value is 2900 mean fluorescence.

Question: B10 was tested. Which “Flow (Mean)” value did it give?
Answer: Its value is 2390 mean fluorescence.

Question: Which “Flow (Mean)” value does the source give for B11 here?
Answer: The value was 4140 mean fluorescence.

Question: B12 was tested. Which “Flow (Mean)” value did it give?
Answer: The value was 2000 mean fluorescence.

Question: Which “Flow (Mean)” value does the source give for B13 here?
Answer: The value was 1990 mean fluorescence.

Question: How did the “Flow (Mean)” value turn out when B14 was run?
Answer: Its value is 2100 mean fluorescence.
